Test [1] deals with T1, recombinant human TIGIT (Human TIGIT His, Sino Biological, 10917-H08H) (human, UniProt Q495A1 22-138).
T1 construct: range 1-138; bought; also called hTIGIT
T1 sequence (looked up): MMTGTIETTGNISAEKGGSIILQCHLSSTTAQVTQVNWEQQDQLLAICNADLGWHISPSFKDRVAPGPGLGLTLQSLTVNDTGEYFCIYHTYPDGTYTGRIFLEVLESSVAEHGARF
Briefly: ELISA, coated human TIGIT-His. Background: An ELISA detects its analyte on a solid surface through an enzyme-linked reagent.

The target of test [2] is T2, full-length human TIGIT expressed on CHO-K cell membrane (CHO-K-TIGIT) (human, UniProt Q495A1 22-244).
T2 construct: whole, on cells; also called CHO-TIGIT; membrane TIGIT
T2 sequence (looked up): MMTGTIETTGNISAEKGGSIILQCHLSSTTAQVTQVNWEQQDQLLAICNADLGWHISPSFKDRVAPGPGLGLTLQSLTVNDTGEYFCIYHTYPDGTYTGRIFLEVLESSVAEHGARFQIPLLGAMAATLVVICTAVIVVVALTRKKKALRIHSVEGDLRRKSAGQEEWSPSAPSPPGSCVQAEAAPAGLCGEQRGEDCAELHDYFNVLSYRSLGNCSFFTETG
Briefly: flow cytometry, CHO-TIGIT cells. Background: A flow cytometer gives signals particle by particle.

The target in test [3] is T1, recombinant human TIGIT (Human TIGIT …). As to the kind of experiment: competition ELISA on recombinant human TIGIT, CD155 as competitor.
The target is the same in test [4]. As to the kind of experiment: BLI, antibody captured on anti-human Fc probe, TIGIT-His in solution.
Test [5] shares this target. Briefly: competition ELISA, human TIGIT (His) coated, antibody titrated against fixed CD155, bound CD155 detected, OD450/655.
The target is the same in test [6]. Briefly: ELISA, recombinant human TIGIT (His) coated, anti-human-Fc-AP, OD405/490. Here is the method: (§1) Antigen hTIGIT (Human TIGIT (His), Sino Biological, 10917-H08H) was diluted into 1 μg/mL with a NaHCO₃ solution of pH 9.6, 50 μl per well was added to a 96-well ELISA plate, and placed overnight in refrigerator at 4° C.
(§2) In order to determine whether the humanized TIGIT monoclonal antibody of the present disclosure could bind to the recombinant human TIGIT protein, in vitro testing was performed. Murine antibodies and Tiragolumab (Tira) were used as positive controls. The experimental method was the same as in Example 3.1.

For test [7], the target named is T3, mouse TIGIT antigen (mouse, UniProt P86176 29-148, limits assumed).
T3 construct: construct not described; also called murine TIGIT
T3 sequence (looked up): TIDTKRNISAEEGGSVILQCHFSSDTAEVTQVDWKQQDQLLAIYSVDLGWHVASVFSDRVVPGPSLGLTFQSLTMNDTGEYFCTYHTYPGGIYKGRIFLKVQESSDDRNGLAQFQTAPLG
Briefly: ELISA, coated mouse TIGIT. Here is the method: (§3) The cynomolgus monkey or mouse TIGIT antigen of was coated with the same method as above, the anti-human TIGIT mouse monoclonal antibody was diluted in gradient, and then the anti-mouse Fab secondary antibody was added (Jackson Immuno Research, 515-035-072) for TMB development. ELISA was used to detect the binding of 8 mouse monoclonal antibodies to recombinant cynomolgus monkey TIGIT.

Test [8] has as its target T1, recombinant human TIGIT (Human TIGIT …). As to the kind of experiment: competition ELISA, coated TIGIT-His, CD155-Fc as competitor. Here is the method:
In order to evaluate the competition between the anti-human TIGIT mouse monoclonal antibody and CD155 (Human CD155 (Fc Tag): Sino Biological, 10109-H02H) for binding to recombinant human TIGIT (Human TIGIT(His), Sino Biological, 10917-H08H), ELISA detection was performed, and the specific steps were as follows:
Primary antibody incubation: the plate was washed twice with PBS (250 μl/well), and patched dry. 6 μg/ml of CD155 was respectively diluted in a binding solution and added into a 96-well dilution plate at 60 μl/well. Then the screened hybridoma antibody was diluted with the binding solution, (the highest concentration was 30 μg/ml), and diluted to 3 times of concentration, and added into the corresponding dilution plate above at 60 μl/well. After mixing well, the sample was added to the coated 96-well ELISA plate at 100 μl/well. The plate was sealed with a sealing film and placed at 37° C. for 1.5 hours.
Secondary antibody incubation: the blocking solution was discarded, the plate was washed with 250 μl PBST for 3 times, and patched dry.

Test [9] addresses T4, recombinant cynomolgus monkey TIGIT (cynomolgus monkey, UniProt A0A7N9I9V4 89-209).
T4 construct: construct not described; also called cynomolgus TIGIT
Briefly: ELISA, recombinant cynomolgus TIGIT coated, anti-mouse Fab secondary antibody, TMB, OD450/655nm. Here is the method: as §3

The target of test [10] is T1, recombinant human TIGIT (Human TIGIT …). As to the kind of experiment: BLI, antibody captured on anti-human Fc probe, TIGIT-His in solution. The source holds these as a separate data set. In general terms: Biolayer interferometry detects binding as a change in optical thickness at a sensor tip.
The target is the same in test [11]. Briefly: ELISA, recombinant human TIGIT (His) coated, anti-human-Fc-AP, OD405/490. Here is the method:
as §1, §2
The source holds these as a separate data set.

Data on 13 molecules can be found in patent US20240417462A1 (SHANGHAI CELGEN BIO PHARMACEUTICAL, published 2024).

Residue numbers refer to the chain shown, from its start. Several values for one entry are separate records, joined by “and”; a condition that tells them apart may be missing. Equal values may be shown once. Read-outs that look alike come from different tables or passages of the source.

What is called EC50 is the midpoint of the concentration-response curve. The term IC50 denotes the concentration that gives 50% inhibition. Broadly, the Kd is the equilibrium constant for the complex coming apart. The koff is the first-order rate constant of dissociation. In general, kon refers to the second-order rate constant of association.

T4 sequence (A0A7N9I9V4 entry or part of it): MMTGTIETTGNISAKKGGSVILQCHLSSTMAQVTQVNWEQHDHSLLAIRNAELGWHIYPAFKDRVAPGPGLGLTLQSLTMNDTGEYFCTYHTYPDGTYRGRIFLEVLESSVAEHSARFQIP

B1: humanized anti-human TIGIT monoclonal antibody P03479 (antibody, V domains shown)
VH: EVQVVESGGGLVKPGGSLRLSCAASGFTFSTYAMSWVRQAPGKGLEWVAEISSGGSHTFYADTVKGRFTISRDNAKNTLYLQMNSLRAEDTAVYYCARKTLDYYALDYWGQGTTVTVSS
VL: DVQITQSPSYLSASVGDRVTINCRASKSISKYLAWYQQKPGKAPKLLIYSGSRLQSGIPSRFSGSGYGTDFTLTISSLQPEDFATYYCQQHNEYPWTFGGGTKLEIK
Regarding B1, the EC50 in test [1] turned out to be 0.0858 nM. In test [2], the EC50 was 0.963 nM. Also, the IC50 in test [3] was found to be 0.714 nM. For the same molecule, in test [4], the Kd came out at 8.43 nM, the koff was determined as 0.00495 s⁻¹ and the kon turned out to be 587000 M⁻¹ s⁻¹. The IC50 in test [5] was 0.109 µg/mL and 0.728 nM.

B2: humanized anti-human TIGIT monoclonal antibody P04665 (antibody, V domains shown)
VH: B1 VH with G42E, K43Q, G44R, A61S, K65T
VL: B1 VL with V2I, I4M, Y10S, L11V, D17E, R18T, V19I, N22T, I58V, Y67S
As to B2, in test [4], the equilibrium dissociation constant (Kd) came to 5.58 nM, the koff is 0.00583 s⁻¹ and the kon came out at 1.04e+06 M⁻¹ s⁻¹. Moreover, the EC50 in test [6] was 0.0136 µg/mL and 0.0913 nM.

B3: humanized anti-human TIGIT monoclonal antibody P04663 (antibody, V domains shown)
VH: B1 VH with G42E, K43Q, G44R
VL: B1 VL with Y10S, L11V, I58V, Y67S
Take B3: the IC50 in test [3] is 0.594 nM. Besides, in test [4], the Kd came out at 2 nM, the koff was 0.00307 s⁻¹ and the kon was 1.53e+06 M⁻¹ s⁻¹. In addition, the EC50 in [6] was 0.0049 µg/mL and 0.033 nM. In test [5], the IC50 was determined as 0.089 mg/L.

B4: humanized anti-human TIGIT monoclonal antibody P04662 (antibody, V domains shown)
VH: B1 VH with G42E, K43Q, G44R, A61S, K65T
VL: B1 VL with Y10S, L11V, I58V, Y67S
Regarding B4, the IC50 in [3] came to 0.63 nM. In addition, in [4], the Kd was determined as 2.4 nM, the koff is 0.0031 s⁻¹ and the kon was 1.29e+06 M⁻¹ s⁻¹. Also, the EC50 in test [6] was 0.0063 µg/mL and 0.0419 nM. Also, in test [5], the IC50 is 0.094 mg/L.

B5: anti-human TIGIT mouse monoclonal antibody 7103-05 (antibody, V domains shown)
VH: EVQLQQSGPALVKPGASVKISCKTSEYTFTEYTMYWVKQSHGKSLEWIGGINPNNGGTRYNQKFKGKATLTVDKSSSTAYMELRSLTSEDSAVYYCARGGHYDYGFAYWGQGTLVTVSA
VL: DIVMTQSHKFMSTSVGDRVSITCKASQDVKTAVAWYQQKPGQSPKVLIYSPSYRYTGVPDRFTGSGSGTDFTFTISSVQAEDLAVYYCQQHYSTPWTFGGGTKLKSK
notes: also called 41D7-2-1
Take B5: the binding result in [7] and in [9] was “no binding” each time. The EC50 in test [1] turned out to be 0.0571 nM. For the same molecule, the IC50 in test [8] stood at 0.169 nM.

B6: anti-human TIGIT mouse monoclonal antibody 7103-02 (antibody, V domains shown)
VH: EVQLQQSGPELVKPGASVKMSCKASGYTITSYVMHWVKQKPGQGLEWIGYINPYNDGTKYNEKFKGKATLTSDKSSSTAYMELSSLTSEDSAVYYCARWNPYYYAMDYWGQGTSVTVSS
VL: EVVLTQSPAITAASLGQKVTITCSANSSARYVHWYQQKSGTSPKPWIYEISKLASGVPARFSGSGSGTSYSLTISSMGAEDAAIYYCQQWNYPLITFGAGTKLEIK
notes: also called 37C6-1-1
B6: the binding result in test [7] and in test [9] was “no binding” each time. Besides, the EC50 in test [1] was determined as 0.0987 nM. In addition, the IC50 in [8] amounted to 0.13 nM.

B7: humanized anti-human TIGIT monoclonal antibody P03487 (antibody, V domains shown)
VH: QVQLVQSGAEVKKPGASVKVSCKASGYTFISYNIYWVRQAPGQGLEWIGGVNPSNGNTNFNENFKSRVTLTVDKSISTAYMELSRLRSDDTAVYYCTRGNYYGYEFAYWGQGTTVTVSS
VL: DIQMTQSPSSMSASVGDRVTITCKASQHVSTAVAWYQQKPGKAPKLLIYSPSYRYTGVPSRFSGSGSGTDFTFTISSVQPEDIATYYCQQHYSTPWTFGGGTKLEIK
On to B7, for which the EC50 in [1] turned out to be 0.532 nM. Besides, in test [10], the Kd was found to be 1.43 nM, the koff came out at 0.000804 s⁻¹ and the kon turned out to be 562000 M⁻¹ s⁻¹. Besides, the EC50 in [11] was determined as 0.0794 mg/L.

B8: humanized anti-human TIGIT monoclonal antibody P03492 (antibody, V domains shown)
VH: B7 VH with S66G, K74T
VL: B7 VL with M11L, V78L
As to B8, the EC50 in [1] was 0.463 nM. The same molecule returned an EC50 in test [2] of 0.437 nM. Besides, in test [10], the dissociation constant Kd is 1.49 nM, the koff is 0.000781 s⁻¹ and the association rate constant (kon) amounted to 525000 M⁻¹ s⁻¹. In addition, the EC50 in test [11] worked out at 0.0692 mg/L.

B9: humanized anti-human TIGIT monoclonal antibody P03486 (antibody, V domains shown)
VH: B7 VH with V20L, V68A, I76S, Y95F
VL: B7 VL
Turning to B9, the EC50 in test [1] came out at 0.511 nM. Besides, in test [10], the Kd came out at 1.14 nM, the koff amounted to 0.000584 s⁻¹ and the kon was found to be 511000 M⁻¹ s⁻¹. Also, in [11], the EC50 was 0.0763 mg/L.

B10: humanized anti-human TIGIT monoclonal antibody P03491 (antibody, V domains shown)
VH: B7 VH
VL: B7 VL with M11L, V78L
In the case of B10, the EC50 in [1] was found to be 0.471 nM. In test [10], the Kd amounted to 1.88 nM, the koff was 0.00095 s⁻¹ and the kon was 506000 M⁻¹ s⁻¹. Moreover, the EC50 in test [11] is 0.0702 mg/L.

B11: humanized anti-human TIGIT monoclonal antibody P03490 (antibody, V domains shown)
VH: B7 VH with V20L, V68A, I76S, Y95F
VL: B7 VL with M11L, V78L
As for B11, in test [1], the EC50 turned out to be 0.501 nM. Also, in [10], the Kd is 1.27 nM, the koff came out at 0.000664 s⁻¹ and the kon turned out to be 522000 M⁻¹ s⁻¹. Besides, the EC50 in [11] was 0.0749 mg/L.

B12: humanized anti-human TIGIT monoclonal antibody P03493 (antibody, V domains shown)
VH: B7 VH with I48M, K65Q, S66G, L70M, K74T
VL: B7 VL with M11L, V78L
With B12, the half-maximal effective concentration (EC50) in test [1] is 0.444 nM. Moreover, the EC50 in [2] stood at 0.557 nM. Moreover, in test [10], the Kd is 1.12 nM, the koff turned out to be 0.000513 s⁻¹ and the kon was 458000 M⁻¹ s⁻¹. Besides, the EC50 in test [11] came to 0.0662 mg/L.

B13: anti-human TIGIT mouse monoclonal antibody 7103-08 (antibody, V domains shown)
VH: EVQLQESGPELVKPGASVKISCKASGYSFTGYYMLWVKQSHVKSLEWIGRINPYNGATTYNQNFKDKASLTVNKSSSTAYMELHSLTSEDSAVYYCARWFGDFDFWGQGTTLTVSS
VL: DIQMTQSPSSLSASLGERVSLTCRASQEISGYLSWLQQKPDGTIKRLIYATSTLDSGVPKRFSGSRSGSDYSLTISSLESEDFADYYCLQYASYPFTFGSGTKLEIK
notes: also called 49F8-1-2
For the molecule B13, the binding result in test [7] and in test [9] was “no binding” each time. In addition, the EC50 in test [1] is 0.0372 nM. Further, the IC50 in test [8] was 0.0857 nM.
